Test results as given in patent US12503479B2, “Phospholipid-flavagline conjugates and methods of using the same for targeted cancer therapy” (Cellectar Biosciences, Inc., priority 2018, dated 2025).
Like-named read-outs stand apart in the source and are kept apart here.

Columns and labels:
[1] = tested on: A549 (human lung adenocarcinoma) cells; experiment: Cytotoxicity of parent compound versus PDC, tumor cells (Example 8); format: cell-based; conditions: increasing concentrations; for Cytotoxic potency to A549 cells versus NHDF cells (selectivity): FIG. 3
Protocol: (§1) A549 (human lung adenocarcinoma) cells and normal human dermal fibroblasts (NHDF) were plated in 96 well dishes overnight. […] The difference between the cytotoxicity of the PDC molecule for tumor cells and that of the normal cells may have indicated a potential to improve the parent molecules therapeutic index.

[2] = tested on: normal human dermal fibroblasts (NHDF); experiment: Cytotoxicity of parent compound versus PDC, normal cells (Example 8); format: cell-based; conditions: increasing concentrations
Protocol: as §1

[3] = tested on: NHDF (normal human dermal fibroblasts); experiment: cells; format: cell-based
[4] = format: in vivo, mice
Protocol: Listed in Table 5 are the doses administered to the mice, and how many mice were alive after treatment (“3/3” indicates 3 out of 3 mice were alive). […] MTD for CLR 1865 was between 5 and 10 mg/kg.

[5] = tested on: HCT 116 cells (human colon cancer); format: in vivo; set-up: dose or concentration left out as unconfirmed; conditions: HCT 116 tumor model; three doses; FIG. 9
A375 and A549 cells = experiment: Levels of FLV3 in cell lysate and growth media (LC/MS); format: cell-based, human
Protocol: FIG. 11 is a graph of concentration versus time for FLV3 detected in the cytosol (normalized to the cytosolic volume) in A375 (human melanoma) and A549 (human lung adenocarcinoma) cell lines.
The levels of FLV3 in cell lysate and growth media were measured using LC/MS. […] Levels of intracellular FLV3 appeared to plateau at 24 hours, while extracellular levels of FLV3 continued to increase.

[6] = tested on: A549 (human lung adenocarcinoma); experiment: cells; format: cell-based; conditions: various concentrations; A549 and NHDF; FIG. 8

Protocol for Plasma stability, human: (§2) A small amount of molecule was exposed to plasma, and the plasma was then analyzed via HPLC or MS to determine if the molecule was degraded.
Protocol for Plasma stability, mouse: as §2

| Compound | Cytotoxic potency in A549 cells relative to the parent molecule [1] | Cytotoxic potency to A549 cells versus NHDF cells (selectivity) [1] | Cytotoxic effect on NHDF cells [2] | Human half-life (Plasma stability, human) [h] | Human plasma stability (Plasma stability, human) | Mouse half-life (Plasma stability, mouse; mouse plasma) [h] | Mice alive after treatment ([4]; Dose 0.1 mg/kg) | Mice alive after treatment ([4]; Dose 0.25 mg/kg) | Mice alive after treatment ([4]; Dose 0.5 mg/kg) | Mice alive after treatment ([4]; Dose 1.0 mg/kg) | Mice alive after treatment ([4]; Dose 5.0 mg/kg) | Mice alive after treatment ([4]; Dose 10.0 mg/kg) | Tolerability compared to FLV3 alone ([4]; mice) | other results |
| --- | --- | --- | --- | --- | --- | --- | --- | --- | --- | --- | --- | --- | --- | --- |
| COc1ccc([C@@]23Oc4cc(OCCCCNC(=O)OCC(C)(C)SSCCCCCCCCCCCCCCCCCCOP(=O)([O-])OCC[N+](C)(C)C)cc(OC)c4[C@]2(O)[C@H](O)[C@H](C(=O)O)[C@H]3c2ccccc2)cc1 [CLR 1865] | near similar potency to the parent molecule in A549 cells | selectivity for the A549 cells | almost no effect on NHDF cells until the highest concentrations | >6.67 | excellent human plasma stability | 3.32 | 3/3 | 3/3 | 3/3 | 3/3 | 3/3 | 2/3 | excellent improvement in tolerability compared to FLV3 alone | Therapeutic Index (TI) (value in parentheses) ([3]; from the NHDF value in parentheses): 37.3; Therapeutic Index (TI) ([3]; not defined, equals NHDF IC50 over lowest tumor line IC50): 11.64; Time stable in mouse plasma (Plasma stability, mouse; mouse plasma): 3.3 h; In vivo therapeutic index ([4]; mice): ≥ 12.5 |
| COc1ccc([C@]23Oc4cc(OCCCCN)cc(OC)c4[C@@]2(O)[C@@H](O)[C@@H](C(=O)O)[C@@H]3c2ccccc2)cc1 [FLV1, reference compound] |  | near equal potency to the A549 cells as it did to the NHDF cells |  |  |  |  |  |  |  |  |  |  |  |  |
| COC(=O)[C@H]1[C@@H](O)[C@@]2(O)c3c(OC)cc(OCCCCNC(=O)OCC(C)(C)SSCCCCCCCCCCCCCCCCCCOP(=O)([O-])OCC[N+](C)(C)C)cc3O[C@@]2(c2ccc(OC)cc2)[C@@H]1c1ccccc1 [CLR 1852] | near similar potency to the parent molecule in A549 cells | selectivity for the A549 cells | almost no effect on NHDF cells until the highest concentrations | >6.67 | excellent human plasma stability | >6.67 | 3/3 | 3/3 | 3/3 | 3/3 | 3/3 | 3/3 | excellent improvement in tolerability compared to FLV3 alone | Therapeutic Index (TI) [3]: 360; Therapeutic Index (TI) (value in parentheses) [3]: 915; Time from which tumor volume was reduced compared to vehicle [5]: around 27 days; Time at which levels of intracellular FLV3 plateau (A375 and A549 cells): 24 h; Levels of FLV3 in the growth media (A375 and A549 cells; after 24 hours): Moderate levels; Levels of FLV3 in the cell lysate (A375 and A549 cells; after 24 hours, FIG. 11): high levels; Time stable in plasma (Plasma stability, mouse; plasma, species not stated): at least 7 hours; Cytotoxic potency compared to FLV3 alone [6]: modest loss in potency compared to FLV3 alone; Maximum tolerated dose (MTD) ([4]; mice): did not achieve a maximum tolerated dose; In vivo therapeutic index ([4]; mouse, in vivo): at least 25 |
